Laboratory results reported in the supplement of paper PMC10065799, “High-throughput profiling of sequence recognition by tyrosine kinases and SH2 domains using bacterial peptide display” (eLife, 2023).

Tests used:
c-Src SH2 = test: SH2 binding enrichment of the phosphorylated peptide, bacterial display (enrichment ratio); higher = better substrate or ligand; peptides without Tyr show the background
SHP2-C SH2 = test: as above
Grb2 SH2 = Grb2 SH2 (UniProt P62993); test: as above
EPHB1 = EPHB1 (UniProt P54762); test: phosphorylation enrichment, bacterial display (enrichment ratio); higher = better substrate or ligand; peptides without Tyr show the background
Fer (mouse) = test: as above
Jak2 = Jak2 (UniProt O60674); test: as above
Chain of Jak2 (O60674 whole entry, looked up): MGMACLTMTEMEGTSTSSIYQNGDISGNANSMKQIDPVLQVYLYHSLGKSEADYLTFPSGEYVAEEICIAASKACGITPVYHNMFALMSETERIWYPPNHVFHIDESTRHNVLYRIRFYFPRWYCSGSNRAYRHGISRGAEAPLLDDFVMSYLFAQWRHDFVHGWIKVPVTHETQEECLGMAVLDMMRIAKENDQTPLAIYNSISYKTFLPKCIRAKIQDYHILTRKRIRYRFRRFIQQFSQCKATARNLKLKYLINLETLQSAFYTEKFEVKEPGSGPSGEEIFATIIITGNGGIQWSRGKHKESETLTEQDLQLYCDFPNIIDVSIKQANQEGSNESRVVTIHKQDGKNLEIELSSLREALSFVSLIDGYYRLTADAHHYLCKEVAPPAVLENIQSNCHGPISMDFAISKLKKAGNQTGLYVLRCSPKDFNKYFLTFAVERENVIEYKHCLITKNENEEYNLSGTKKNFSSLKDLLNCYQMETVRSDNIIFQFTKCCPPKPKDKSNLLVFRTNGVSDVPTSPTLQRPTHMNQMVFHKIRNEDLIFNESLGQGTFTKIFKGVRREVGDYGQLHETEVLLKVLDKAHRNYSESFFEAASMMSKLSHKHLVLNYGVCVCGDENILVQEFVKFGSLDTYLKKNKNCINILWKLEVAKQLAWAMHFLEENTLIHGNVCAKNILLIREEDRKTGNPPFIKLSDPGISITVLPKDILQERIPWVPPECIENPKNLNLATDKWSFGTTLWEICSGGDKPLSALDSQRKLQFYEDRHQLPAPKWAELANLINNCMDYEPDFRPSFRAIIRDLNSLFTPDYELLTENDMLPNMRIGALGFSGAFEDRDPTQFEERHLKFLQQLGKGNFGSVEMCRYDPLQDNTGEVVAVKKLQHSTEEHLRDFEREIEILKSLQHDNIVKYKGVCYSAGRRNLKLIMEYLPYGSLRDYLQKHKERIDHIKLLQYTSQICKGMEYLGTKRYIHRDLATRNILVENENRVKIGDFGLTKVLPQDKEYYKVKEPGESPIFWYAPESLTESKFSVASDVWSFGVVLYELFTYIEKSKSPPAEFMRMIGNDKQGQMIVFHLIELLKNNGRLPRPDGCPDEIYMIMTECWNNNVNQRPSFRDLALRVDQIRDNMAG

Fyn = Fyn (UniProt P06241); test: as above
Chain of Fyn (P06241 whole entry, looked up): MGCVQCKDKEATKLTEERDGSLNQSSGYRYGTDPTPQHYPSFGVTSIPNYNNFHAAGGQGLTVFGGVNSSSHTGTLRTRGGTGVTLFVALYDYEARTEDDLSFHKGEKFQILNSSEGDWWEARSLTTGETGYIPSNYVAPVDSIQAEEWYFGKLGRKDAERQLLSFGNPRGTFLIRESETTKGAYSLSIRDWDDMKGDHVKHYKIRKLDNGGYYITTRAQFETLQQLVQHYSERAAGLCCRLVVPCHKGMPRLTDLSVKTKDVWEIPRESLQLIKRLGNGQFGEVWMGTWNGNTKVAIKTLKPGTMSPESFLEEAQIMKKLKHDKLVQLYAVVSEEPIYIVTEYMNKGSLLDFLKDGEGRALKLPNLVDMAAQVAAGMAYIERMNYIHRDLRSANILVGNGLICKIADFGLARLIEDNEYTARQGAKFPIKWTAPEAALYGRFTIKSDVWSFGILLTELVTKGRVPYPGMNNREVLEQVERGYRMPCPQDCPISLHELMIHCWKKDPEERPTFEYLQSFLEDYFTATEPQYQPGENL

Fes = Fes (UniProt P07332); test: as above
Hck = Hck (UniProt P08631); test: as above
Chain of Hck (P08631 whole entry, looked up): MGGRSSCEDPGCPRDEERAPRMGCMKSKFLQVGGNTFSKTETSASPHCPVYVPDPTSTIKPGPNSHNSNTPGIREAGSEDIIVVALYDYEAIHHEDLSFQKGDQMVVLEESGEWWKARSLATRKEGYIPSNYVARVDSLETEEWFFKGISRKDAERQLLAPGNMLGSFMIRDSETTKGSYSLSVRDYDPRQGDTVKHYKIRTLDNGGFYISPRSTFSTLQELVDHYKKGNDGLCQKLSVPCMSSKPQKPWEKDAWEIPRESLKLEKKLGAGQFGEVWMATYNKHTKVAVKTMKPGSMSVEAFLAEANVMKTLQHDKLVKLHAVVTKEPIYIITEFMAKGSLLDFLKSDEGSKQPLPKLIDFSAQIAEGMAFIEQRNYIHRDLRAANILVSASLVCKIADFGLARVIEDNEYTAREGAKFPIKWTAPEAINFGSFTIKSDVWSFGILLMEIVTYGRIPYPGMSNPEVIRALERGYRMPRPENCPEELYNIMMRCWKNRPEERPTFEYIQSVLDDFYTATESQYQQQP

FGFR3 = FGFR3 (UniProt P22607); test: as above
Chain of FGFR3 (P22607 whole entry, looked up): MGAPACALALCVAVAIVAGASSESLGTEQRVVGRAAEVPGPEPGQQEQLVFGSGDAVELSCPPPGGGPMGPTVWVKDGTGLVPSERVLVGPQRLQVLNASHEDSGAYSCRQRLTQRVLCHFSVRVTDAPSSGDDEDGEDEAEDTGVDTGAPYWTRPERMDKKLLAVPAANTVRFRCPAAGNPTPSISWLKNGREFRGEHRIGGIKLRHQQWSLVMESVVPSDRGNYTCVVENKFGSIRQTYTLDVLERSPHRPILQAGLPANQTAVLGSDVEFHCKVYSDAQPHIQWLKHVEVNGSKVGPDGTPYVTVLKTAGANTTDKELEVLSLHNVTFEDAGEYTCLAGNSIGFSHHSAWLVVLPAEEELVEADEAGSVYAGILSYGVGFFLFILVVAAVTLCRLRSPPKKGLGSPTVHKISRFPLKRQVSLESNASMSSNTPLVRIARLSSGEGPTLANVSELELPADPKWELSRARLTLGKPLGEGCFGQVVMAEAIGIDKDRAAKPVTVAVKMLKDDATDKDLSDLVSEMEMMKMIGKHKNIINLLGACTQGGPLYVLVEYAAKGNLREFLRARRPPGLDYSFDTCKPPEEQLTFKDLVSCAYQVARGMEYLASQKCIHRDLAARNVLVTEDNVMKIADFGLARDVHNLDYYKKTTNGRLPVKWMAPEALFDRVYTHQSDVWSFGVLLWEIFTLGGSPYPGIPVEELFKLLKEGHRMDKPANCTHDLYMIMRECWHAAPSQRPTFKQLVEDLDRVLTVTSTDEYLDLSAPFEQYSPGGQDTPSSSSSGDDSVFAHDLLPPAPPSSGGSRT

FGFR1 = FGFR1 (UniProt P11362); test: as above
Chain of FGFR1 (P11362 whole entry, looked up): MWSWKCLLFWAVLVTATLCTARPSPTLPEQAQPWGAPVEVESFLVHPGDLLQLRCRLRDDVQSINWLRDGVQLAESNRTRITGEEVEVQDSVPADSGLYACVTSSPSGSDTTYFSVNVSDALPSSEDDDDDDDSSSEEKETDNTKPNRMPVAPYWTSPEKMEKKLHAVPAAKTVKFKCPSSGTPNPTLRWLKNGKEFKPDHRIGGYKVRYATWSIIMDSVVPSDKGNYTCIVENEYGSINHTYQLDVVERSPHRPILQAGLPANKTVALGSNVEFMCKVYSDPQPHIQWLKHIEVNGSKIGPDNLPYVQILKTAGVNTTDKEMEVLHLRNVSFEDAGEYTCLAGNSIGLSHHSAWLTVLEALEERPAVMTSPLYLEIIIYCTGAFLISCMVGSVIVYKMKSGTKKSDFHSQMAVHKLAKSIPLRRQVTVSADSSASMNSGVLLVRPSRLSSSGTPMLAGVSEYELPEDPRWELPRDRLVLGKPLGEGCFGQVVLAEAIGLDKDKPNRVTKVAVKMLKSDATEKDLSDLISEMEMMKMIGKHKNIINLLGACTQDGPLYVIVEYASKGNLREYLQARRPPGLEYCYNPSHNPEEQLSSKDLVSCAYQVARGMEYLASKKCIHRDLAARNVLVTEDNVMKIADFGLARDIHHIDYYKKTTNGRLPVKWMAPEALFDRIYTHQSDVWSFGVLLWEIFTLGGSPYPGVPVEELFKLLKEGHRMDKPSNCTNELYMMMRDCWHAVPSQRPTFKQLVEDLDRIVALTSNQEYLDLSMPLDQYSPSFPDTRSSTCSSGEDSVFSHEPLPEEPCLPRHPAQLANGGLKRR

EPHB2 = EPHB2 (UniProt P29323); test: as above
AncSZ = test: as above
c-Src = test: as above
MERTK = MERTK (UniProt Q12866); test: as above
Chain of MERTK (Q12866 whole entry, looked up): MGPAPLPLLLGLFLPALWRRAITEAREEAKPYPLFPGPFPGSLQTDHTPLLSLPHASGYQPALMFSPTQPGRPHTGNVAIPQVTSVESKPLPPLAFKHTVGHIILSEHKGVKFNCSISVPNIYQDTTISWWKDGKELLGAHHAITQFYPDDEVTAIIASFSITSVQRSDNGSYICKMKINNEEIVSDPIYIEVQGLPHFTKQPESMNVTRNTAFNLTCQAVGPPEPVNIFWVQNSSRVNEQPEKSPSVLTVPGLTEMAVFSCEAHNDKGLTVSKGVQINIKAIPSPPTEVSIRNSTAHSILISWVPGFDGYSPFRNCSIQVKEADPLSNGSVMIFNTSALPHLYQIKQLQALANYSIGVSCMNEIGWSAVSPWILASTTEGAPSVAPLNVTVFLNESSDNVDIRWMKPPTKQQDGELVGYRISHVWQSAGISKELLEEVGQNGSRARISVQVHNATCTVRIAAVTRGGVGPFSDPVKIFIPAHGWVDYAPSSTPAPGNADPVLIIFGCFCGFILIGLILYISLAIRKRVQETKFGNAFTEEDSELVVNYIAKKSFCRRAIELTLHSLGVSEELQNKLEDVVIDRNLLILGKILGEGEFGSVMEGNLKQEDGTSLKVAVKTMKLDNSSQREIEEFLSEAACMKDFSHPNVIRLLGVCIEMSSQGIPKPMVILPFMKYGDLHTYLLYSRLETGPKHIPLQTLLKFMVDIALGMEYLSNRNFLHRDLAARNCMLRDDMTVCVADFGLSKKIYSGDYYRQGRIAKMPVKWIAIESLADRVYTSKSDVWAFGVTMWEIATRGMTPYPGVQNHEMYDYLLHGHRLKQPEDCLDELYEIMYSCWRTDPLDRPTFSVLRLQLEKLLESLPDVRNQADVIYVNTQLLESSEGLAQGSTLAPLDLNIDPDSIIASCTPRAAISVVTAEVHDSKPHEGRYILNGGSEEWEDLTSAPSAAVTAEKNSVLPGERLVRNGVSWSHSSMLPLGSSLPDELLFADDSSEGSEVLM

c-Abl (mouse) = test: as above
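For SH2 binding enrichment of the phosphorylated peptide, bacterial display in this document: peptide library displayed on the E. coli surface as eCPX fusions, selected cells deep-sequenced, score is each peptide's frequency after selection divided by its frequency in the input.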
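For phosphorylation enrichment, bacterial display in this document: 11-residue human phosphosite peptides and single-mutation variants displayed on the E. coli surface, counted by deep sequencing, each peptide's frequency after selection divided by its frequency in the unselected input library; frequency after pTyr selection over input frequency; kinase dosed for 20-30% of maximal phosphorylation in three min.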

Chain of Grb2 SH2 (P62993 whole entry, looked up): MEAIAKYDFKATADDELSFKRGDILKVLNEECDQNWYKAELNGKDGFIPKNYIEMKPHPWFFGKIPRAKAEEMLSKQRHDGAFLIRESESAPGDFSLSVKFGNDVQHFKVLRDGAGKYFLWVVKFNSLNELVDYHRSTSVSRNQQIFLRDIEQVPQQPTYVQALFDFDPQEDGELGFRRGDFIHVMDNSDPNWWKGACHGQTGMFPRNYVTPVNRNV

Sequence | SH2 binding enrichment (c-Src SH2) | SH2 binding enrichment (SHP2-C SH2) | SH2 binding enrichment (Grb2 SH2) | phosphorylation enrichment (EPHB1) | phosphorylation enrichment (Fer (mouse)) | phosphorylation enrichment (Jak2) | phosphorylation enrichment (Fyn) | phosphorylation enrichment (Fes) | phosphorylation enrichment (Hck) | phosphorylation enrichment (FGFR3) | phosphorylation enrichment (FGFR1) | phosphorylation enrichment (EPHB2) | phosphorylation enrichment (AncSZ) | phosphorylation enrichment (c-Src) | phosphorylation enrichment (MERTK) | phosphorylation enrichment (c-Abl (mouse))
PAGSGYPAYLG [ATP6V1A_Y374_D371G] | 0.396 | 0.688 | 0.884 | 1.22 | 0.866 | 0.727 | 0.574 | 0.752 | 0.645 | 0.914 | 1.17 | 0.638 | 0.782 | 0.417 | 0.442 | 0.525
PAQAAYQKVVA [HBB_Y131_V127A] | 0.87 | 0.884 | 0.9 | 0.562 | 0.477 | 0.59 | 0.879 | 0.771 | 0.542 | 0.62 | 0.544 | 0.67 | 0.647 | 0.375 | 0.349 | 0.589
PDSVDYRKKGY [CTSK_Y121] | 0.686 | 0.708 | 1.14 | 0.599 | 0.657 | 1.01 | 0.749 | 1.08 | 0.78 | 0.661 | 1.06 | 1.67 | 1.07 | 0.905 | 0.823 | 0.976
PEADKYRLTYA [FGG_Y300] | 0.392 | 0.736 | 0.806 | 0.832 | 0.828 | 1.13 | 0.626 | 1.51 | 1.62 | 1.14 | 0.888 | 1.09 | 1.61 | 0.604 | 0.777 | 0.825
PEPTGYSAELS [EZR_Y499_A494P] | 0.461 | 0.63 | 0.87 | 0.573 | 0.456 | 0.871 | 0.57 | 0.943 | 0.419 | 0.762 | 0.502 | 0.851 | 1.02 | 0.461 | 0.567 | 0.962
PESILYRKFTT [NTRK1_Y701] | 0.412 | 0.81 | 0.724 | 0.668 | 0.818 | 1.14 | 0.377 | 0.9 | 0.538 | 0.73 | 0.627 | 0.52 | 1.14 | 0.632 | 0.542 | 0.732
PFWKLYESVKK [MKI67_Y241] | 0.766 | 0.625 | 1.16 | 6.75 | 1.8 | 1.58 | 1.03 | 1.39 | 4.34 | 0.703 | 0.52 | 2.31 | 1 | 1.58 | 0.966 | 1.07
PGAPAYRVLME [MYO5A_Y1245] | 0.422 | 0.71 | 0.728 | 0.397 | 0.671 | 1.06 | 0.542 | 1.29 | 0.564 | 0.726 | 0.379 | 0.585 | 0.592 | 0.423 | 0.566 | 1.52
PGLKGYPGLSG [COL4A2_Y306_R304K] | 0.431 | 0.504 | 0.652 | 0.474 | 0.218 | 0.422 | 0.213 | 0.468 | 0.434 | 0.318 | 0.369 | 0.307 | 0.476 | 0.347 | 0.367 | 0.639
PGPPGYCDSSQ [COL12A1_Y3043] | 0.603 | 0.692 | 0.979 | 0.914 | 0.77 | 1.08 | 0.643 | 1.41 | 0.639 | 0.941 | 0.461 | 0.492 | 1.03 | 0.594 | 0.505 | 0.707
PGQAAYQKVVA [HBB_Y131_V127G] | 0.922 | 0.615 | 0.984 | 0.517 | 0.49 | 0.626 | 0.478 | 0.831 | 0.361 | 0.558 | 0.373 | 0.525 | 0.68 | 0.579 | 0.514 | 0.491
PIAPVYAPSMV [ACAT1_Y331_A333P] | 0.621 | 0.718 | 0.785 | 2.4 | 16.1 | 0.738 | 9.96 | 1.67 | 21 | 1.22 | 0.779 | 2.72 | 1.35 | 8.41 | 4.7 | 49.8
PIFEGYGLPHA [ACTA1_Y171_A172G_YF] | 0.516 | 0.581 | 0.612 | 0.469 | 0.744 | 0.836 | 0.701 | 0.866 | 0.642 | 0.451 | 0.628 | 0.5 | 0.806 | 0.547 | 0.641 | 0.872
PIYLYYLMDLS [ITGB2_Y131_D128Y] | 0.751 | 0.842 | 0.902 | 7.52 | 4.54 | 8.11 | 5.41 | 3.42 | 4.44 | 13.9 | 13.6 | 6.17 | 4.09 | 6.42 | 11.1 | 3.32
